Experimental data published in a protein production outcome set (Wang et al. 2014).

Test: label from the status in PepcDB records

Sequence | protein production
MTGADHAHTRRRPLTGPLVKSLVFVVVTALATTVLGLSVAGTSVDSGTGTSTYKALFTDVTGLVDGDSVRISGVTVGEVTDVRVVDRRTAQVTFTVRDDRTLPRSTTAAVKYLNMVGQRYVSLGRGSGDLAGTLPEGGTVPLDRTTPALDLTLLFNGFKPLFEGLSPKDVNDLAGSIVQVLQGEGATVDSLIRHVGSLGTTVAAKDKVIGEVVENLTTVLDTLNDREDGFDDLVVTLQKLVTGFNQDRKPLGEAVAAMGDLTTVTAGLLEDGRAPLKKDVQELGRLSAGLGEHTPQIEDFLEKSPAKMTALARLSSYGSWFNLYLCEARVSGVSTSDGSKPPTGIAITESRCRGLEHHHHHH | failed
MEANTSSSGTVTGQRFAERRRSLPPGAELRQRLLKQLKELCDQIGKAYSTLVQKAALVIEPADQAVSLEPDTQRQATCITNLSDEGELWTTVYELNLGVQNLLMFIEDIRLLLLTQAQVPGPSVEENGLKTAGKGGCSPTELEGARFSDRLSSSNTHRFLEQLWDRYTP | not failed
MIELLISILTYALISLQSFYRKMDRPAASTIGAALMLAFGVMSLKEAVRAIDYNTIMLLFGMMVLTAYLGIAGFFDWLASKIMGFSGNGKRLLFTIVFSSGFLSALFVNDTICVFMTPVVVRVALSAGISPIPLLIALATSANVGSAVTIIGNPQNMLIGLKSGIGFVQFTAKMLPVGVAGIFIVYSVIYVLYRGELGKLRNGKIEVNLNRRLAAKGLLTFALVLILFVTEFYPVSLSAFIGAAIMFAIGGVKPREALEKVDWGLLLLFCNLFIVMHGFEKSYGEKILSMLSFGESFADYLYFSLLTVAGSNLVSNVPFVMMVLPAAKGAAADFWLILAMASTFAGNLTLIGSVANLIVAESAERHGVHLSFFEYLKAGVPVTFATVLVGALLIYIT | failed
MTLDLFAPQPKTNLLPYDGDVEDYGCFISTAEAEQYFQYFLKHLAWRHDEARLYGKHFITPRQVAWYGDDHYRYAYSGIMRDSLPWDPQLLILKQQIEQTLAERFNSCLANLYQEGTQGMAWHSDGDMSLAKQTTIASLSLGATRKFCFRHLRTKEKIEMQLQSGQLIVMRGETQQHWQHAIMKSQKVIHPRINLTFRQFLLLEHHHHHH | failed
MTQAKFVEGSILRHILVMSSTAAVGISALFVVDLLDIFFLSLLGEHELAAAVGYAGSISFFTTLIGIGLSIALGALVSRSIGAKDVELAKRLLLNSAVVTTLISVFVSIVVTTFIPELVTLVGASGHTAELAESYLYILVPSLPFICLAMALGGALRSVGDAKLSMMSTLAGGGVNAVLDPIFIFLFAMGIEGAALASVLARITVFVIAGRGVMVKHQLLGKFNRSDFKADLKPIFAIAGPAILTNIATPIGNAFVTRAIADFGDAYVAGWAVLGRLVPVTFGMIFALSGAIGPIVGQNFGAGRFDRVRESLTKAIQFCTLYVVVMSLLLFLLKSQIVSLFDMKGDSAALIEFFCSYIAVFFIFSGILFVANASFNNLGKAKYSTLFNVGKATLGTVPFVYVGAQLGGVYGVLIGQVIGSILFGVVGVWVAYRLVDKVVLTSTGHGVVSLATDADELMTDTVAPSATSPLSSSCAQMAQLTEEQEMEPVLPLIGQQDNSRR | failed
NYDPFVRHSVTVKADRKTAFKTFLEGFPEWWPNNFRTTKVGAPLGVDKKGGRWYEIDEQGEEHTFGLIRKVDEPDTLVIGWRLNGFGRIDPDNSSEFTVTFVADGQKKTRVDVEHTHFDRMGTKHAKRVRNGMDKGWPTILQSFQDKIDEEGAKK | not failed
MLIIAILCLGLLVAQGVASLILLSRLVKGARRRSPLAPVFLPEEGVRNVSVVVPTLNEAARVTPCLLGLAQQGPPLREILVVDSRSTDGTQAVVQARQKDNPRLQLLTDDPLPDNWVGRPWALNYGFRHSDPASEWILGIDADTQPQPGLVASVVQAAEEENYDILSLSPQFILQSPGEWWLQPALLMTLLYRFESAGVREQAPETVMANGQCFLCRRLVLEALGGYELAARSFCDDVTLARVAAQRGYRVGFLDGANLIRVRMYEGIGETWREWGRSLDLKDATVPARLWAEVIFLLLVQGLPILFFSLLLMLWGEDFDFLTLRLAIALNGFLLLVRWGMLLAIYPSYYRPSEKGAWSYWLSPLADPLAVTRIIISASQTPKQWRGRIYPGAS | failed
MLREPGAADRAAFVELLASPEVHTYLGGPRPRAELERELPGTPERWPGSFVVDLDGEMIGQVLLRRTREHCCPVAVGKVDLGYLFLPRAWGLGYAAEACAAALDWLDCVLPGEPVVLNTQTANTGSMRLAAKLGFTEVERFRAWDAEQWLGLRPPLT | failed
EQVQRFGDLDVHYNVFNSSFLQPNVASAVGLVRSKAQGVINVVPMEKGKPVEAAVTGSAKDLTGKVIPLEFRRVSEEGAIYNLAQFPISQRETLVFTIKVEAKGEPAQTFSFNKEIFPDE | not failed
